We go through 1 molecule from patent US9333268B2, “Methods of treatment with arginine deiminase” (Polaris Group, priority 2012, dated 2016).

The half-life is how long it takes for the measured level to halve.

In series [1] the test system is ASS-negative SCLC cell line SK-LC-13. The experiment in a line: MTS proliferation assay, adherent cells. The class given is cell-based, human. The note with it: 0 to 10 mIU ml^−1, 120 h. The protocol:
(§1) To assess the anti-proliferative effect of ADI-PEG 20 on adherent cells, cells were plated a density of 2×10^3 cells per well in a tissue culture 96-microwell plate and allowed to adhere overnight. The following day, cells were treated with ADI-PEG 20 (DesigneRx Pharmaceuticals, Vacaville, Calif., USA, a subsidiary of Polaris Group, San Diego, Calif., USA) ranging from 0 to 10 mIU ml^−1. After incubation for 120 h, cell viability was determined using (3-(4,5-dimethylthiazol-2-yl)-5-(3-carboxymethoxyphenyl)-2-(4-sulfophenyl)-2H-tetrazolium) (MTS, CellTiter 96 AQueous One Solution, Promega, Madison, Wis., USA), according to the manufacturers protocol. Twenty microliters of MTS reagent was added to the appropriate control and assay wells before the plate was incubated for 2 h at 37° C. and absorbance read at 490 nm. Absolute absorbance for each treatment was determined by subtracting the background MTS absorbance, and the mean and standard deviation was calculated. The effect of the autophagy inhibitor chloroquine (Sigma) on cell proliferation was assessed using the MTS assay.

Series [2] relates to ASS-negative SCLC cell line SW1271. The experiment in a line: MTS proliferation assay, adherent cells. The class given is cell-based, human. The settings on record: 0 to 10 mIU ml^−1, 120 h. How it is done: as §1
A general note: Formazan colour is commonly taken as a measure of viable cells.

The subject of series [3] is ASS-positive colon carcinoma cell line SW1222. The series can be described thus: MTS proliferation assay, adherent cells. The format is cell-based. The settings on record: 0 to 10 mIU ml^−1, 120 h. The protocol:
as §1

The subject of series [4] is non-adherent ASS-deficient cells. The series can be described thus: Total protein proliferation assay, non-adherent cells. The class given is cell-based. The settings on record: 0-10 mIU ml^−1, 120 h. How it is done:
(§2) To assess the activity of ADI-PEG 20 in non-adherent cells, cells were plated at a density of 1×10^5 cells per well in a tissue culture 24-well plate. Additional media was then added containing ADI-PEG 20 for final concentrations ranging from 0-10 mIU ml^−1. To measure changes in proliferation following incubation with ADI-PEG 20 for 120 h, cells were collected, washed and lysed in RIPA buffer. Total protein for each treatment was then determined using the BSA protein assay as a measure of total cell number. All treatments were performed at least in triplicate.

Series [5] relates to non-adherent ASS-positive cells. The description is as above. The note with it: 0-10 mIU ml^−1, 120 h. The class given is cell-based. How it is done:
as §2

The subject of series [6] is SK-LC-13 cells. The experiment in a line: Western blot of active caspase 3. The format is cell-based, human. How it is done:
Following washing, the membranes were then probed with the appropriate secondary antibody before proteins were finally visualized using ECL reagent (Perkin-Elmer, Fremont Calif., USA).
In order to determine the possible mechanism of the antiproliferative effects of ADI-PEG 20 a FACS analysis of apoptosis by sub-G1 DNA content was performed. Cells were treated for 72 h before the analysis was performed.
A general note: In western blotting, separated proteins are transferred to a membrane and probed.

Series [7] has as its system SW1222. The series can be described thus: MTS viability of siRNA-transfected ASS-positive SW1222 cells treated with ADI-PEG 20. The class given is cell-based. How it is done: as §1
To further assess the importance of cellular ASS expression in response to treatment with ADI-PEG 20, expression of ASS was silenced through the use of ASS-specific siRNA. Small interfering RNA constructs were obtained from Integrated DNA technologies (IDT, Coralville, Iowa, USA) against the ASS-coding region. […]

Series [8] has as its system SK-LC-13 xenografts. The experiment in a line: Large SK-LC-13 SCLC xenografts in BALB/c-nude mice. The class given is in vivo. The protocol: The activity of ADI-PEG 20 was also assessed in mice bearing ASS-positive NCI-H69 SCLC xenografts. Small cell lung cancer xenografts were established in female BALB/c-nude mice, 3-4 weeks of age weighing ˜20 g (Charles River Labs, Wilmington, Mass., USA). To establish the tumors, 10×10^6 cells in media were mixed 1:1 with Matrigel High Concentration (BD Biosciences) and injected subcutaneously in the abdominal area of the mice. Tumor growth was regularly measured and tumor volume calculated using the formula (TV=(length×width^2)/2). All animal studies were approved by the MSKCC Institutional Animal Care and Use Committee. Mice were euthanized when tumors reached an approximate volume of 1,000 mm^3.
The anti-tumor efficacy of ADI-PEG 20 was simultaneously assessed in mice bearing either moderate or large SK-LC-13 SCLC xenografts. In the first study, treatment was initiated once tumors had reached an average size of 125 mm^3. In the large xenograft study, treatment was initiated once tumors had reached an average size of 500 mm^3. Arginine deiminase-PEG20 was administered at doses of 1, 2 and 5 IU per animal once every 5 days for 20 days (five doses). To assess the effect of sustained dosing, further groups (n=5) at all dose levels received continued administration of ADI-PEG 20 every 5 days until tumors progressed to the 1,000 mm^3 size limit. Additionally, the efficacy of ADI-PEG 20 was assessed in mice bearing ASS-positive NCI-H69 xenografts. Here, mice received five doses of 2 IU ADI-PEG 20 for 20 days once tumor had reached an average size of 150 mm^3. Arginine deiminase-PEG20 was administered by intraperitoneal injection in all studies. The specific activity of ADI-PEG 20 used in these studies is 9 IU mg^−1 of protein. Thus, 1 IU of ADI-PEG 20 per 20 g mouse is equivalent to 160 IU m^−2.
Efficacy of ADI-PEG 20 treatment in vivo was assessed by comparing means of control and treatment groups using unpaired two-tailed t-tests at the termination of control groups using GraphPad Prism (Version 5.0, GraphPad Software Inc., La Jolla, Calif., USA).

The subject of series [9] is ASS high osteosarcoma cell line MG63. The series can be described thus: Sarcoma cell line panel treated with ADI-PEG 20. The class given is cell-based.
Series [10] concerns ASS low expressing osteosarcoma cell line MNNG. The series can be described thus: Xenograft of osteosarcoma cell line MNNG in nude mice. The format is in vivo. The note with it: compared to PBS treated controls.
The conditions of series [11]: in the mice; cited from earlier work.

B1: ADI-PEG 20: arginine deiminase (ADI) formulated with PEG of 20,000 m.w. (protein)
chain: MSVFDSKFNGIHVYSEIGELETVLVHEPGREIDYITPARLDELLFSAILESHDARKEHQSFVKIMKDRGINVVELTDLVAETYDLASKAAKEEFIETFLEETVPVLTEANKEAVRAFLLSKPTHEMVEFMMSGITKYELGVESENELIVDPMPNLYFTRDPFASVGNGVTIHFMRYIVRRRETLFARFVFRNHPKLVKTPWYYDPAMKMSIEGGDVFIYNNETLVVGVSERTDLDTITLLAKNIKANKEVEFKRIVAINVPKWTNLMHLDTWLTMLDKNKFLYSPIANDVFKFWDYDLVNGGAEPQPQLNGLPLDKLLASIINKEPVLIPIGGAGATEMEIARETNFDGTNYLAIKPGLVIGYDRNEKTNAALKAAGITVLPFHGNQLSLGMGNARCMSMPLSRKDVKW
On to B1, for which the proliferation entry in series [1] was “clear dose-dependent decrease in proliferation”; in series [2], “clear dose-dependent decrease in proliferation”; in [4], “relative decrease in proliferation”; in [5], “almost total resistance”. Moreover, in [3], the growth entry is reported as “No effect”. For the same molecule, the activation of caspases entry in [6] is listed as “no activation of caspases”. Moreover, the results for the cell viability result in series [7] (cells treated with ASS siRNA) and in series [7] (control or scrambled siRNA-treated cells) were “reduced cell viability” and “no decrease in viability”, respectively. In addition, the tumor growth result in [8] (1, 2 and 5 IU, tumors 473.4±161.0 mm^3 at start) was “dose-dependent inhibition of tumor growth”. Moreover, the “tumor volume relative to control mice” value in series [8] (1 IU, continued treatment, day 32 (P=0.007)) is “significantly reduce the tumor volume”. Further, the “tumor volume, continued relative to short-course treatment” value in series [8] (1 IU, day 39) is “moderately significant (P=0.26) reduction in tumor volume”. Besides, the “tumor size relative to control mice” value in series [8] (1 IU, short-course, day 32 (P=0.07)) is on record as “did not result in a statistical significant reduction”. The “tumor volume relative to untreated controls” value is given as “significant reduction of tumor volume” in series [8] (2 IU, continued (P=0.0007)); “significant reduction of tumor volume” in [8] (2 IU, short (P=0.004)); “significant reduction of tumor volume” in series [8] (5 IU, continued (P=0.0001)); “significant reduction of tumor volume” in series [8] (5 IU, short (P=0.0003)). For the same molecule, the “responses, continued dosing relative to short-course” value in [8] (2 and 5 IU) was “did not significantly improve responses”. Further, the cell division result in series [9] is listed as “continued to divide”. The tumor growth rate entry in [10] is “significantly slower tumor growth rate”. Further, the half-life in [11] was ~170 h.
